Data on 15 molecules can be found in patent US11136407 (AIMM THERAPEUTICS B V, dated 2021).

Substitutions are numbered along the chain they refer to. In names and notes the source's numbering stands. Bridges are numbered along the chain shown (N, C = ends). Primed or numbered codes have the meaning given here. Where no end group is shown, it is not given here. The star is where a group is joined. PEG2′ = PEG2 spacer group linking an N-terminal biotin to the peptide; Biotin = O=C1N[C@H]2[C@H](CS[C@H]2CCCCC(=O)*)N1

B1: antibody AT14-012 (antibody, V domains shown)
VH: EVQVVESGGGLVQPGRSLRLSCAASGFTFDDYAMHWVRQAPGKGLEWVSGISWNSGSIVYADSVKGRFTISRDNAKNSLYLQLNSLRAEDTAFYYCAKAVSGYYPYFDYWGQGILVTVSS
VL: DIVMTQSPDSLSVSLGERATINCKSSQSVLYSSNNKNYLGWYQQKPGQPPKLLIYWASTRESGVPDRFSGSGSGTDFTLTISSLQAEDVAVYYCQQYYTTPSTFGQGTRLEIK
notes: also called AT1412; WT AT14-012
B2: AT14-012 single mutant D116H (antibody, V domains shown)
VH: B1 VH with D108H
VL: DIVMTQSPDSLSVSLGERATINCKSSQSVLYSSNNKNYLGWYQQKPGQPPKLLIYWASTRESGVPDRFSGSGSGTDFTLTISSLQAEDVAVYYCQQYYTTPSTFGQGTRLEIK
B3: AT14-012 single mutant H40Y (antibody, V domains shown)
VH: B1 VH with H35Y
VL: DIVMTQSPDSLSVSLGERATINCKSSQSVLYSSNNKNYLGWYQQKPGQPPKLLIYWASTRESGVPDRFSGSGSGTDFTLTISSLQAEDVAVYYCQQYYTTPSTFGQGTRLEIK
B4: AT14-012 double mutant H40Y/Y112F (antibody, V domains shown)
VH: B1 VH with H35Y, Y104F
VL: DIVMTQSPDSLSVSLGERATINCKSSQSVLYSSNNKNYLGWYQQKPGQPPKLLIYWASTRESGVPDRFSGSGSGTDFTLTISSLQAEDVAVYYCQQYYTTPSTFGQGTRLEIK
notes: also called double group 1 mutant; combination group 1 mutant
B5: AT14-012 quadruple mutant H40Y/Y112F/D116H/T29N (antibody, V domains shown)
VH: B1 VH with T28N, H35Y, Y104F, D108H
VL: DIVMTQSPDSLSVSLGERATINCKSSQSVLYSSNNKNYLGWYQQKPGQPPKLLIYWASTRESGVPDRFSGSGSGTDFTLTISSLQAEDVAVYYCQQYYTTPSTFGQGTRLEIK
notes: also called quadruple variant
B6: AT14-012 single mutant Y112F (antibody, V domains shown)
VH: B1 VH with Y104F
VL: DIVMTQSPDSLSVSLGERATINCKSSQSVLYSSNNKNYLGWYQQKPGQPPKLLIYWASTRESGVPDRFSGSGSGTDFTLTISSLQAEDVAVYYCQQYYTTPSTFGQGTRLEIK
B7: AT14-012 double mutant D116H/T29N (antibody, V domains shown)
VH: B1 VH with T28N, D108H
VL: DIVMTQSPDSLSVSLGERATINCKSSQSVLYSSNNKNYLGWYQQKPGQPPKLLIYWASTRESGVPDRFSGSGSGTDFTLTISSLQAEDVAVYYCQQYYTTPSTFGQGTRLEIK
notes: also called combination of the two group 2 mutations
B8: AT14-012 single mutant T29N (antibody, V domains shown)
VH: B1 VH with T28N
VL: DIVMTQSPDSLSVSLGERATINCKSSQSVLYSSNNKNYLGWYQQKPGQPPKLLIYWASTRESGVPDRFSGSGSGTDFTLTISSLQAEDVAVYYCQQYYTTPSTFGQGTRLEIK
B9: 2H15 B cell subclone 4D4 (antibody, IgG3, V domains shown)
VH: B1 VH
VL: DIVMTQSPDSLSVSLGERATINCKSSQSVLYSSNNKNYLGWYQQKPGQPPKLLIYWASIRESGVPDRFSGSGSGTDFTLTISSPQAEDVAVYYCQQYYTTPSTFGQGTRLEIK
notes: group 2; B cell supernatant, IgG3
B10: 2H15 B cell subclone 4H10 (antibody, V domains shown)
VH: B1 VH with H35Y
VL: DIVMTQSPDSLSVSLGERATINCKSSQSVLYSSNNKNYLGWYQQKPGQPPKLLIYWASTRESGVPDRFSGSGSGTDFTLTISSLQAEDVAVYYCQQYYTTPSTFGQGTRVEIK
notes: group 1; B cell supernatant
B11: 2H15 B cell subclone 2D12 (antibody, V domains shown)
VH: B1 VH with D108H
VL: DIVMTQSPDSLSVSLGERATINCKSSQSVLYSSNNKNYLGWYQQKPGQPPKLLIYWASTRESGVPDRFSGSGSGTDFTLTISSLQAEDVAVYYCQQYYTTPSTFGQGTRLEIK
notes: group 2; B cell supernatant
B12: 2H15 B cell subclone 1D5 (antibody, V domains shown)
VH: B1 VH with H35Y
VL: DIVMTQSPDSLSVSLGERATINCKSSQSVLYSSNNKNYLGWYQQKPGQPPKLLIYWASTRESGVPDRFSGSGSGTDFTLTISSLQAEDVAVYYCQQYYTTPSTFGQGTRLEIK
notes: group 1; B cell supernatant
B13: 2H15 B cell subclone 1F5 (antibody, V domains shown)
VH: B1 VH with Y104F
VL: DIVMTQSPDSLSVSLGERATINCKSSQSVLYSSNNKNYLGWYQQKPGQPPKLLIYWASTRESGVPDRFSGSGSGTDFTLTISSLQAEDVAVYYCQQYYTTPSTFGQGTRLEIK
notes: group 1; B cell supernatant
B14: 2H15 B cell subclone 10D1 (antibody, V domains shown)
VH: B1 VH with H35Y
VL: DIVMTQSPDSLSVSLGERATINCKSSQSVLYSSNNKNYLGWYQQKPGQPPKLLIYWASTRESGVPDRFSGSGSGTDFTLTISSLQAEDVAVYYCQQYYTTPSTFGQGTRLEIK
notes: group 1; B cell supernatant
B15: AT14-012 recombinant antibody engineered as an IgG1 (antibody, V domains shown)
VH: B1 VH
VL: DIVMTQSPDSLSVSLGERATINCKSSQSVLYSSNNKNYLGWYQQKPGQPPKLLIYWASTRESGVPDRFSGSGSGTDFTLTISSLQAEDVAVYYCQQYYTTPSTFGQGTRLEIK
modifications: Some experiments used Alexa647 or biotin labelled antibody, or a sortase-tagged (ST) heavy chain. None of this is carried in the letters.
notes: May be the same molecule as m1 if m1 stands for the IgG1 form; also called AT14-012 IgG1

By Kd is commonly meant the constant that tells how readily two partners part at equilibrium. A high value points to a looser complex. Broadly, the koff is a measure of how fast the partners let go of each other. Higher therefore signals fast dissociation. What is called kon is the rate constant with which the complex forms. Lower therefore signals slow association.

The first experiment has as its target T1, m4 circular peptide biotin-PEG(2)-CSPKKDVLETFTVKSSC (human, disulfide 1-17; not fully specified; printed as biotin-PEG(2)-CSPKKDVLETFTVKSSC).
T1 construct: synthetic peptide; also called circular constructed m4 peptide
T1 peptide: {Biotin-PEG2′}-CSPKKDVLETFTVKSSC
The experiment can be described thus: ELISA and SPR. Background: ELISA stands for enzyme-linked immunosorbent assay.
B1: the binding result is reported as “no binding”.

The next experiment concerns the target T2, CD9-3×FLAG-rabbitFc-Sortase-biotin (human; rabbit, biotin attached at the C-terminus by Sortase A with a GGG-biotin nucleophile; the HIS tag is removed by that reaction).
T2 construct: also called CD9-EC2-3×FLAG-rabbitFc; recombinant CD9-EC2 protein; not shown: Fc region (CH2-CH3) of a rabbit IgG1 protein, amino acids 108-322, UniProt P01870
T2 chain (part 1 of 2): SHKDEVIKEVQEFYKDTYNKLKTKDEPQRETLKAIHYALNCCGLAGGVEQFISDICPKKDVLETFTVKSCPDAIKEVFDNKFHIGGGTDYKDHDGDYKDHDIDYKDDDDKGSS
T2 chain (part 2 of 2): GGGSLPETGGHHHHHH
The experiment can be described thus: SPR on CD9 coated chip, CHO production supernatant.
For the molecule B2, the “fold enhancement of affinity against WT AT14-012” value (shortened to “fold enhancement of affinity”) was determined as 10 times.

As to B3, the “fold enhancement of affinity” value is 100 times.

As for B4, the Kd is roughly 0.22 nM and the “fold enhancement of affinity” value was determined as 250 times.

On to B5, for which the Kd was roughly 0.455 nM and the “fold lower affinity against the group 1 double mutant (H40Y/Y112F)” value is 2 times.

As to B6, the “fold enhancement of affinity” value is 50 times.

The target in another experiment is T3, human CD9 (human, UniProt P21926 2-228).
T3 construct: Natural CD9 on tumor cell lines, primary cells and platelets, or in their lysates (Western blot, immunoprecipitation); also called MRP-1; MIC3
T3 sequence: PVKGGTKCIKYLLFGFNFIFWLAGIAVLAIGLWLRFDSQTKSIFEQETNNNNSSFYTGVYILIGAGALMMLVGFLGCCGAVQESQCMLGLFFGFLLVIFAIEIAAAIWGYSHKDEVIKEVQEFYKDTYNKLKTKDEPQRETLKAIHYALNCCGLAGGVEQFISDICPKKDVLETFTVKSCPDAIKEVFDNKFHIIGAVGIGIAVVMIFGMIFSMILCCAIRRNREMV
The experiment can be described thus: flow cytometry on melanoma (MelWBO) cells, CHO supernatant.
As to B7, the binding result is listed as “binds”.

For B8, the binding result is given as “binds”.

Consider B2, for which the binding result is listed as “binds”.

Regarding B3, the binding result is recorded as “binds”.

B4: the binding result is given as “binds”.

For the molecule B5, the binding result is listed as “binds”.

In the case of B6, the binding result was “binds”.

A further experiment deals with T4, mouse CD9 on platelets (mouse, UniProt P40240 1-226).
T4 construct: whole, on cells
T4 sequence (looked up): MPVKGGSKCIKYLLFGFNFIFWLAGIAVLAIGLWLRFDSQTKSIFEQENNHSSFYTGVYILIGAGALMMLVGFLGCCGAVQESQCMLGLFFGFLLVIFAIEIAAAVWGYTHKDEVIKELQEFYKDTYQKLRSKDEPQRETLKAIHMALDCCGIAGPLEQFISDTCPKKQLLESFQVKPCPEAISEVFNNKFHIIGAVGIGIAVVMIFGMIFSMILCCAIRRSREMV
The experiment is described as follows: flow cytometry on NSG mouse blood, IgG-bio SA-PeCy7. On the technique in general: Flow cytometry measures light scatter and fluorescence of single cells or particles in a stream.
For the molecule B1, the binding result is on record as “no binding”.

For another experiment, the target named is T2, CD9-3×FLAG-rabbitFc-Sortase-biotin. The experiment can be described thus: SPR (IBIS), B cell supernatant on the CD9 spot; unit inferred.
Molecule B9 returned a Kd of 15.9 nM.

On to B10, for which the Kd is 6.1 nM.

Turning to B11, the affinity, expressed as Kd, was 5.2 nM.

The molecule B12 showed a Kd of 2.3 nM.

In turn, B13 had a Kd of 3.8 nM.

As for B14, binding was characterised by a dissociation constant (Kd) of 3.9 nM.

The target of the next experiment is T5, surface CD81 (human, UniProt P60033).
T5 construct: also called CD81 on cells
T5 sequence (tetraspanin chain, looked up): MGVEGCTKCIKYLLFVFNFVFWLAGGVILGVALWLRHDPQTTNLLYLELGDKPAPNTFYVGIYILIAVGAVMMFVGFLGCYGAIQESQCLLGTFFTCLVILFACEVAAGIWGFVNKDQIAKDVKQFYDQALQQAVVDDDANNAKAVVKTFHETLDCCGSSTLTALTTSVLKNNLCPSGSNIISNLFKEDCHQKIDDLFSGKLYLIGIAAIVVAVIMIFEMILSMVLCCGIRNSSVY
The experiment can be described thus: flow cytometry, AT14-12 (IgG1) against AT10-02 (IgG1) on transduced HL-60 cells.
For the molecule B15, the binding result is given as “no binding”.

The target of another experiment is T2, CD9-3×FLAG-rabbitFc-Sortase-biotin. The experiment is described as follows: SPR on CD9-3xFLAG-rabbitFc-Sortase-biotin spots, CHO production supernatant; unit from the legend paragraph 219.
Molecule B7 had a Kd of 4.19 nM.

Molecule B8 had a Kd of 50.1 nM.

In the case of B2, the Kd was 4.62 nM.

As for B3, the Kd was determined as 0.543 nM.

In turn, B4 had a Kd of 0.219 nM. Against the preceding molecule, the Kd is about 2.5-fold lower.

Consider B5, for which the Kd is 0.455 nM.

Take B6: binding was put at a Kd of 1.09 nM.

A further experiment has the same target. The experiment is described as follows: SPR on CD9-3xFLAG-rabbitFc-Sortase-biotin spots, CHO production supernatant; unit and power of ten from the legend paragraph 219.
B7 returned a koff of 0.00297 s⁻¹ and a kon of 708000 M⁻¹ s⁻¹.

Molecule B8 gave a koff of 0.00126 s⁻¹ and a kon of 25900 M⁻¹ s⁻¹.

The molecule B2 registered a koff of 0.00217 s⁻¹ and a kon of 470000 M⁻¹ s⁻¹.

Consider B3, for which the koff was 0.000202 s⁻¹ and the on-rate (kon) came out at 372000 M⁻¹ s⁻¹.

B4 gave a koff of 3.69e-05 s⁻¹ and a kon of 164000 M⁻¹ s⁻¹.

In turn, B5 showed a koff of 6.92e-05 s⁻¹ and a kon of 153000 M⁻¹ s⁻¹.

Molecule B6 displayed a koff of 0.000203 s⁻¹ and a kon of 185000 M⁻¹ s⁻¹.
